Assay [1] deals with GST-Nuf2-Ndc80 complex (UniProt Q9BZD4;O14777). In words: pull-down.
Assay [2] addresses Nuf2-Ndc80 complex (UniProt Q9BZD4;O14777). The experiment in a line: SEC. (In gel filtration, larger molecules generally elute earlier.)

Sequence of GST-Nuf2-Ndc80 complex (Q9BZD4 whole entry, chain 1 of 2): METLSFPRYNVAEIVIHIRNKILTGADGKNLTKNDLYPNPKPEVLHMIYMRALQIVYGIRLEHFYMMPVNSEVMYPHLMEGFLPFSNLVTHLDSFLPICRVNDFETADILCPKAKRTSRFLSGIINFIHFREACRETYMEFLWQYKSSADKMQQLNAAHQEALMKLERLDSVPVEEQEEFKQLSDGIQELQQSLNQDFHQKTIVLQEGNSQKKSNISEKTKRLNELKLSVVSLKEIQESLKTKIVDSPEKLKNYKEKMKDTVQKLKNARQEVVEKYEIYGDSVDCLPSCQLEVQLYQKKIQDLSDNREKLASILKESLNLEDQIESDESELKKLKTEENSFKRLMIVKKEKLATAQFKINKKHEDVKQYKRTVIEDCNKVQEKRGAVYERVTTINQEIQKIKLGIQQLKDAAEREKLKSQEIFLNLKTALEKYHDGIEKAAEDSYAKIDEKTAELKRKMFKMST
Sequence of GST-Nuf2-Ndc80 complex (O14777 whole entry, chain 2 of 2): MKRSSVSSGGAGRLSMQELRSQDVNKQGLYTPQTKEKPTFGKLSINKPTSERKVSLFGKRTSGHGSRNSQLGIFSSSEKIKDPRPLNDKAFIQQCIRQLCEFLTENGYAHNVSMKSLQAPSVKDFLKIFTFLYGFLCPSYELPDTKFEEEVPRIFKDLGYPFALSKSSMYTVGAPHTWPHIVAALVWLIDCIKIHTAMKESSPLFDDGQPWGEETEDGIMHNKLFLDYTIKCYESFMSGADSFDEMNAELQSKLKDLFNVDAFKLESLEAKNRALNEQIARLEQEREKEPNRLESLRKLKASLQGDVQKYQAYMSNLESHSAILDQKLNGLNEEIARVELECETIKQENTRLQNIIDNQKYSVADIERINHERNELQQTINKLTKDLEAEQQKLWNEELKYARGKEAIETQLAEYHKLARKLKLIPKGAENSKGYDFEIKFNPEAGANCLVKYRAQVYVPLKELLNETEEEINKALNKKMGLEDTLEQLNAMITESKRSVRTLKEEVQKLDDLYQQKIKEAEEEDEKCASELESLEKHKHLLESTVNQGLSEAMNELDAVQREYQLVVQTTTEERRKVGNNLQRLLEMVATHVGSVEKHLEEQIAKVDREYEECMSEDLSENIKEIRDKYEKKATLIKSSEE
Sequence of Nuf2-Ndc80 complex (Q9BZD4 whole entry, chain 1 of 2): as the sequence (Q9BZD4 whole entry, chain 1 of 2) above
Sequence of Nuf2-Ndc80 complex (O14777 whole entry, chain 2 of 2): as the sequence (O14777 whole entry, chain 2 of 2) above

B1: Ska1-Ska2-Ska3 6A complex (complex)
chain 1: MASSDLEQLCSHVNEKIGNIKKTLSLRNCGQEPTLKTVLNKIGDEIIVINELLNKLELEIQYQEQTNNSLKELCESLEEDYKDIEHLKENVPSHLPQVTVTQSCVKGSDLDPEEPIKVEEPEPVKKPPKEQRSIKEMPFITCDEFNGVPSYMKSRLTYNQINDVIKEINKAVISKYKILHQPKKSMNSVTRNLYHRFIDEETKDTKGRYFIVEADIKEFTTLKADKKFHVLLNILRHCRRLSEVRGGGLTRYVIT
chain 2: MEAEVDKLELMFQKAESDLDYIQYRLEYEIKTNHPDSASEKNPVTLLKELSVIKSRYQTLYARFKPVAVEQKESKSRICATVKKTMNMIQKLQKQTDLELSPLTKEEKTAAEQFKFHMPDL
chain 3: MDPIRSFCGKLRSLASTLDCETARLQRALDGEESDFEDYPMRILYDLHSEVQTLKDDVNILLDKARLENQEGIDFIKATKVLMEKNSMDIMKIREYFQKYGYSPRVKKNSVHEQEAINSDPELSNCENFQKTDVKDDLSDPPVASSCISEKSPRSPQLSDFGLERYIVSQVLPNPPQAVNNYKEEPVIVTPPTKQSLVKVLKAPKCALKMDDFECVAPKLEHFGISEYTMCLNEDYTMGLKNARNNKSEEAIDTESRLNDNVFATPSPIIQQLEKSDAEYTNAPLVPTFCAPGLKIPSTKNSIALVSTNYPLSKTNSSSNDLEVEDRTSLVLNSDTCFENLTDPSSPTISSYENLLRAPAPPEVTKIPEDILQLLSKYNSNLATPIAIKAVPPSKRFLKHGQNIRDVSNKEN
As for B1, in assay [1], the binding result is listed as “binds”.

B2: Ska1-Ska2-Ska3 6A complex treated with Cdk1/Cyclin B1 (complex)
chain 1: MASSDLEQLCSHVNEKIGNIKKTLSLRNCGQEPTLKTVLNKIGDEIIVINELLNKLELEIQYQEQTNNSLKELCESLEEDYKDIEHLKENVPSHLPQVTVTQSCVKGSDLDPEEPIKVEEPEPVKKPPKEQRSIKEMPFITCDEFNGVPSYMKSRLTYNQINDVIKEINKAVISKYKILHQPKKSMNSVTRNLYHRFIDEETKDTKGRYFIVEADIKEFTTLKADKKFHVLLNILRHCRRLSEVRGGGLTRYVIT
chain 2: MEAEVDKLELMFQKAESDLDYIQYRLEYEIKTNHPDSASEKNPVTLLKELSVIKSRYQTLYARFKPVAVEQKESKSRICATVKKTMNMIQKLQKQTDLELSPLTKEEKTAAEQFKFHMPDL
chain 3: MDPIRSFCGKLRSLASTLDCETARLQRALDGEESDFEDYPMRILYDLHSEVQTLKDDVNILLDKARLENQEGIDFIKATKVLMEKNSMDIMKIREYFQKYGYSPRVKKNSVHEQEAINSDPELSNCENFQKTDVKDDLSDPPVASSCISEKSPRSPQLSDFGLERYIVSQVLPNPPQAVNNYKEEPVIVTPPTKQSLVKVLKAPKCALKMDDFECVAPKLEHFGISEYTMCLNEDYTMGLKNARNNKSEEAIDTESRLNDNVFATPSPIIQQLEKSDAEYTNAPLVPTFCAPGLKIPSTKNSIALVSTNYPLSKTNSSSNDLEVEDRTSLVLNSDTCFENLTDPSSPTISSYENLLRAPAPPEVTKIPEDILQLLSKYNSNLATPIAIKAVPPSKRFLKHGQNIRDVSNKEN
modifications: treated with Cdk1/Cyclin B1 plus ATP; phosphorylated residues not stated
For B2, in assay [1], the binding result is listed as “binds”.

B3: Ska1-Ska2-Ska3 6D complex (complex)
chain 1: MASSDLEQLCSHVNEKIGNIKKTLSLRNCGQEPTLKTVLNKIGDEIIVINELLNKLELEIQYQEQTNNSLKELCESLEEDYKDIEHLKENVPSHLPQVTVTQSCVKGSDLDPEEPIKVEEPEPVKKPPKEQRSIKEMPFITCDEFNGVPSYMKSRLTYNQINDVIKEINKAVISKYKILHQPKKSMNSVTRNLYHRFIDEETKDTKGRYFIVEADIKEFTTLKADKKFHVLLNILRHCRRLSEVRGGGLTRYVIT
chain 2: MEAEVDKLELMFQKAESDLDYIQYRLEYEIKTNHPDSASEKNPVTLLKELSVIKSRYQTLYARFKPVAVEQKESKSRICATVKKTMNMIQKLQKQTDLELSPLTKEEKTAAEQFKFHMPDL
chain 3: MDPIRSFCGKLRSLASTLDCETARLQRALDGEESDFEDYPMRILYDLHSEVQTLKDDVNILLDKARLENQEGIDFIKATKVLMEKNSMDIMKIREYFQKYGYSPRVKKNSVHEQEAINSDPELSNCENFQKTDVKDDLSDPPVASSCISEKSPRSPQLSDFGLERYIVSQVLPNPPQAVNNYKEEPVIVTPPTKQSLVKVLKDPKCALKMDDFECVDPKLEHFGISEYTMCLNEDYTMGLKNARNNKSEEAIDTESRLNDNVFATPSPIIQQLEKSDAEYTNDPLVPTFCDPGLKIPSTKNSIALVSTNYPLSKTNSSSNDLEVEDRTSLVLNSDTCFENLTDPSSPTISSYENLLRDPDPPEVTKIPEDILQLLSKYNSNLATPIAIKAVPPSKRFLKHGQNIRDVSNKEN
On to B3, for which the binding result in assay [2] and in assay [1] was “binds” in each case.

The record behind these values is paper doi:10.1101/680314 (bioRxiv, 2019).
